These results are taken from patent US20090325259A1, “USE OF ADHESION MOLECULES AS BOND STRESS-ENHANCED NANOSCALE BINDING SWITCHES” (priority 2002, published 2009).

For assay [1], the system named is guinea pig red blood cells (RBCs). In words: Parallel plate flow chamber, RBCs on carpet of FimH-expressing E. coli. It is filed as cell-based. Conditions: low shear, 0.01 to 0.14 dynes/cm^2. How it is done:
Bacteria-coated dishes were prepared as follows: 35 mm tissue culture dishes were incubated with 20 μg/ml RNAse B in 0.02 M bicarbonate buffer for 1 hr at 37° C. and washed three times in PBS with 0.1% BSA (PBS-BSA). The dishes were then incubated with 200 μl PBS-BSA containing 108 colony-forming units of E. coli for 1 hr at 37° C. and washed three times. […] The dishes were then placed under a Glycotech parallel plate flow chamber with a size B gasket (2.5 cm×0.25 cm×250 μm) and sealed with vacuum. A Harvard model #975 pulse-free syringe pump was used to pump fluid through the chamber. […]
RBC movement was recorded using phase contrast microscopy with a 20× objective, a CCD camera, and Metamorph video imaging software by Universal Imaging. Videos were recorded at 1 frame every 2 s for a total of 3 min at each shear rate. […] The average velocity for each cell was calculated from these positions over the 3 min at each shear. […] We only analyzed cells that were attached and in the field of view at the start of the 3 min time frame. The off-rate of RBCs was calculated from the X, the percent of original RBCs remaining bound at time t, using the formula k=1/t·ln(1/X), and using t=3 min. […]

Assay [2] deals with bovine RNAse B (trimannose). Briefly: Bacterial adhesion to bovine RNAse B-coated microplate (trimannose), static. Conditions: mutations in FimH-j96 and FimH-f18. It counts as binding. How it is done:
(§1) Assays of bacterial adhesion to Man1-BSA and bovine RNAseB immobilized in 96-well plates were carried out as described previously (Sokurenko et al., 1995). Briefly, Man1-BSA and bovine RNAseB were dissolved at 20 μg/ml in 0.02 M bicarbonate buffer, and 100 μl aliquots were incubated in microtiter wells for 1 hr at 37° C. The wells were then washed three times with PBS and quenched with 0.1% BSA in PBS. 3H-thymidine-labeled bacteria were added in 0.1% BSA in PBS and incubated for 40 min at 37° C. without shaking to achieve saturation, and the wells were then washed with PBS. The individual wells were subjected to scintillation counting. The density of bacteria used in all assays was 5×10^7 colony forming units per 100 μl. RBC rosette-formation assay was performed by mixing equal amounts of serially diluted bacterial suspensions (starting from OD540 nm=1.0) and a 1% suspension of RBC in U-bottom microtiter plate wells. On-slide agglutination assays were performed by mixing the suspension of RBC and bacteria on a slide surface followed by rocking at ˜3 s^−1.

Assay [3] relates to guinea pig red blood cells (RBCs). Briefly: RBC rosette-formation assay (static agglutination). Conditions: static rosette-formation assay. It counts as cell-based. As to the method: as §1
Two commonly used RBC agglutination assays were performed that utilize different shear conditions. […] If no agglutination occurs, RBCs fall into a pellet in the bottom of the well (FIG. 15A), while agglutination results in a rosette of RBCs crosslinked by bacteria. […]

B1: FimH-j96-Q32L:S124A: FimH-j96 with combined Q32L and S124A mutations in the loop regions near the linker chain (protein)
chain: FACKTANGTAIPIGGGSANVYVNLAPAVNVGLNLVVDLSTQIFCHNDYPETITDYVTLQRGSAYGGVLSSFSGTVKYNGSSYPFPTTSETPRVVYNSRTDKPWPVALYLTPVSSAGGVAIKAGALIAVLILRQTNNYNSDDFQFVWNIYANNDVVVPTGGCDVSARDVTVTLPDYPGSVPIPLTVYCAKSQNLGYYLSGTTADAGNSIFTNTASFSPAQGVGVQLTRNGTIIPANNTVSLGAVGTSAVSLGLTANYARTGGQVTAGNVQSIIGVTFVYQ
On to B1, for which, in assay [1], the “Adhesion of RBCs to bacterial carpet under low shear” value is “moved much more under low shear stress than those on FimH-j96”.

B2: V154P: point mutation V154P engineered into the FimH-j96 and FimH-f18 variants (protein)
chain: FACKTANGTAIPIGGGSANVYVNLAPAVNVGQNLVVDLSTQIFCHNDYPETITDYVTLQRGSAYGGVLSSFSGTVKYNGSSYPFPTTSETPRVVYNSRTDKPWPVALYLTPVSSAGGVAIKAGSLIAVLILRQTNNYNSDDFQFVWNIYANNDPVVPTGGCDVSARDVTVTLPDYPGSVPIPLTVYCAKSQNLGYYLSGTTADAGNSIFTNTASFSPAQGVGVQLTRNGTIIPANNTVSLGAVGTSAVSLGLTANYARTGGQVTAGNVQSIIGVTFVYQ
For the molecule B2, the “Trimannose binding function of point mutants (in words)” value (“Trimannose binding function” for short) in assay [2] was “entirely conserved”.

B3: V156P: point mutation V156P engineered into the FimH-j96 and FimH-f18 variants (protein)
chain: FACKTANGTAIPIGGGSANVYVNLAPAVNVGQNLVVDLSTQIFCHNDYPETITDYVTLQRGSAYGGVLSSFSGTVKYNGSSYPFPTTSETPRVVYNSRTDKPWPVALYLTPVSSAGGVAIKAGSLIAVLILRQTNNYNSDDFQFVWNIYANNDVVPPTGGCDVSARDVTVTLPDYPGSVPIPLTVYCAKSQNLGYYLSGTTADAGNSIFTNTASFSPAQGVGVQLTRNGTIIPANNTVSLGAVGTSAVSLGLTANYARTGGQVTAGNVQSIIGVTFVYQ
On to B3, for which, in assay [2], the “Trimannose binding function” value is on record as “entirely conserved”.

B4: V155P: point mutation V155P engineered into the FimH-j96 and FimH-f18 variants (protein)
chain: FACKTANGTAIPIGGGSANVYVNLAPAVNVGQNLVVDLSTQIFCHNDYPETITDYVTLQRGSAYGGVLSSFSGTVKYNGSSYPFPTTSETPRVVYNSRTDKPWPVALYLTPVSSAGGVAIKAGSLIAVLILRQTNNYNSDDFQFVWNIYANNDVPVPTGGCDVSARDVTVTLPDYPGSVPIPLTVYCAKSQNLGYYLSGTTADAGNSIFTNTASFSPAQGVGVQLTRNGTIIPANNTVSLGAVGTSAVSLGLTANYARTGGQVTAGNVQSIIGVTFVYQ
As for B4, the “Trimannose binding function” value in assay [2] is reported as “entirely conserved”.

B5: FimH-j96-V156P: FimH-j96 with the V156P point mutation in the linker chain (protein)
chain: FACKTANGTAIPIGGGSANVYVNLAPAVNVGQNLVVDLSTQIFCHNDYPETITDYVTLQRGSAYGGVLSSFSGTVKYNGSSYPFPTTSETPRVVYNSRTDKPWPVALYLTPVSSAGGVAIKAGSLIAVLILRQTNNYNSDDFQFVWNIYANNDVVPPTGGCDVSARDVTVTLPDYPGSVPIPLTVYCAKSQNLGYYLSGTTADAGNSIFTNTASFSPAQGVGVQLTRNGTIIPANNTVSLGAVGTSAVSLGLTANYARTGGQVTAGNVQSIIGVTFVYQ
As for B5, the “RBC agglutination under static conditions (in words)” value in assay [3] was “significantly better than the corresponding wild-types”.

B6: FimH-f18-V156P: FimH-f18 with the V156P point mutation in the linker chain (protein)
chain: FACKTANGTAIPIGGGSANVYVNLAPAVNVGQNLVVDLSTQIFCHNDYPETITDYVTLQRGSAYGGVLSSFSGTVKYNGSSYPFPTTSETPRVVYNSRTDKPWPVALYLTPVSSAGGVAIKAGSLIAVLILRQTNNYNSDDFQFVWNIYANNDVVPPTGGCDVSARDVTVTLPDYPGSVPIPLTVYCAKSQNLGYYLSGTTADAGNSIFTNTASFSPAQGVGVQLTRNGTIIPANNTVSLGAVGTSAVSLGLTANYARTGGQVTAGNVQSIIGVTFVYQ
For the molecule B6, the “Adhesion of RBCs to bacterial carpet under low shear” value in assay [1] was “dramatically stronger adhesion under low shear than did the FimH-f18 parent”. Further, the “RBC agglutination under static conditions (in words)” value in assay [3] is reported as “significantly better than the corresponding wild-types”.
